Test results reported in US7132278B2, “PAS kinase” (Board of Regents, The University of Texas System, priority 2001, dated 2006).
Residue numbers refer to the chain shown, from its start. Numbers in names are those of the source.

B1: PASK ΔN: truncated human PASK variant lacking both PAS domains, 948 amino-terminal residues removed, His6 tag (protein)
chain: SLPGSTHSTAAELTGPSLVEVLRARPWFEEPPKAVELEGLAACEGEYSQKYSTMSPLGSGAFGFVWTAVDKEKNKEVVVKFIKKEKVLEDCWIEDPKLGKVTLEIAILSRVEHANIIKVLDIFENQGFFQLVMEKHGSGLDLFAFIDRHPRLDEPLASYIFRQLVSAVGYLRLKDIIHRDIKDENIVIAEDFTIKLIDFGSAAYLERGKLFYTFCGTIEYCAPEVLMGNPYRGPELEMWSLGVTLYTLVFEENPFCELEETVEAAIHPPYLVSKELMSLVSGLLQPVPERRTTLEKLVTDPWVTQPVNLADYTWEEVCRVNKPESGVLSAASLEMGNRSLSDVAQAQELCGGPVPGEAPNGQGCLHPGDPRLLTS
modifications: left off: small tags and cut ends
notes: truncated human PASK variant lacking both PAS domains, 948 amino-terminal residues removed, His6 tag
B2: K1028R: dominant negative human PASK, conserved lysine in ATP-binding region mutated to arginine (protein, UniProt Q96RG2 1-1323, looked up, variant K1028R)
PAS domain-containing …: MEDGGLTAFEEDQRCLSQSLPLPVSAEGPAAQTTAEPSRSFSSAHRHLSRRNGLSRLCQSRTALSEDRWSSYCLSSLAAQNICTSKLHCPAAPEHTDPSEPRGSVSCCSLLRGLSSGWSSPLLPAPVCNPNKAIFTVDAKTTEILVANDKACGLLGYSSQDLIGQKLTQFFLRSDSDVVEALSEEHMEADGHAAVVFGTVVDIISRSGEKIPVSVWMKRMRQERRLCCVVVLEPVERVSTWVAFQSDGTVTSCDSLFAHLHGYVSGEDVAGQHITDLIPSVQLPPSGQHIPKNLKIQRSVGRARDGTTFPLSLKLKSQPSSEEATTGEAAPVSGYRASVWVFCTISGLITLLPDGTIHGINHSFALTLFGYGKTELLGKNITFLIPGFYSYMDLAYNSSLQLPDLASCLDVGNESGCGERTLDPWQGQDPAEGGQDPRINVVLAGGHVVPRDEIRKLMESQDIFTGTQTELIAGGQLLSCLSPQPAPGVDNVPEGSLPVHGEQALPKDQQITALGREEPVAIESPGQDLLGESRSEPVDVKPFASCEDSEAPVPAEDGGSDAGMCGLCQKAQLERMGVSGPSGSDLWAGAAVAKPQAKGQLAGGSLLMHCPCYGSEWGLWWRSQDLAPSPSGMAGLSFGTPTLDEPWLGVENDREELQTCLIKEQLSQLSLAGALDVPHAELVPTECQAVTAPVSSCDLGGRDLCGGCTGSSSACYALATDLPGGLEAVEAQEVDVNSFSWNLKELFFSDQTDQTSSNCSCATSELRETPSSLAVGSDPDVGSLQEQGSCVLDDRELLLLTGTCVDLGQGRRFRESCVGHDPTEPLEVCLVSSEHYAASDRESPGHVPSTLDAGPEDTCPSAEEPRLNVQVTSTPVIVMRGAAGLQREIQEGAYSGSCYHRDGLRLSIQFEVRRVELQGPTPLFCCWLVKDLLHSQRDSAARTRLFLASLPGSTHSTAAELTGPSLVEVLRARPWFEEPPKAVELEGLAACEGEYSQKYSTMSPLGSGAFGFVWTAVDKEKNKEVVVRFIKKEKVLEDCWIEDPKLGKVTLEIAILSRVEHANIIKVLDIFENQGFFQLVMEKHGSGLDLFAFIDRHPRLDEPLASYIFRQLVSAVGYLRLKDIIHRDIKDENIVIAEDFTIKLIDFGSAAYLERGKLFYTFCGTIEYCAPEVLMGNPYRGPELEMWSLGVTLYTLVFEENPFCELEETVEAAIHPPYLVSKELMSLVSGLLQPVPERRTTLEKLVTDPWVTQPVNLADYTWEEVFRVNKPESGVLSAASLEMGNRSLSDVAQAQELCGGPVPGEAPNGQGCLHPGDPRLLTS
B3: T1165A: PASK mutant, threonine residue 1165 changed to alanine (protein, UniProt Q96RG2 1-1323, looked up, variant T1165A)
PAS domain-containing …: B2 PAS domain-containing … with R1028K, T1165A
B4: S1273,77,80A: PASK mutant, serine residues 1273, 1277 and 1280 changed to alanine (protein)
chain: B2 PAS domain-containing … with Y899H, R1028K, F1266C, S1273A, S1277A, S1280A
modifications: left off: small tags and cut ends
notes: PASK mutant, serine residues 1273, 1277 and 1280 changed to alanine
B5: S1287,89A: PASK mutant, serine residues 1287 and 1289 changed to alanine (protein)
chain: B2 PAS domain-containing … with Y899H, R1028K, F1266C, S1287A, S1289A
modifications: left off: small tags and cut ends
notes: PASK mutant, serine residues 1287 and 1289 changed to alanine
B6: S1273-1289A: PASK mutant, all five serines simultaneously changed to alanine (protein)
chain: B2 PAS domain-containing … with Y899H, R1028K, F1266C, S1273A, S1277A, S1280A, S1287A, S1289A
modifications: left off: small tags and cut ends
notes: PASK mutant, all five serines simultaneously changed to alanine
B7: wildtype: His6-tagged human PASK enzyme expressed in baculovirus-infected Sf-9 cells (protein)
chain: B2 PAS domain-containing … with Y899H, R1028K, F1266C
modifications: left off: small tags and cut ends
notes: His6-tagged human PASK enzyme expressed in baculovirus-infected Sf-9 cells
B8: S1149A: PASK mutant, serine residue 1149 changed to alanine (protein)
chain: B2 PAS domain-containing … with Y899H, R1028K, S1149A, F1266C
modifications: left off: small tags and cut ends
notes: PASK mutant, serine residue 1149 changed to alanine

Key:
Test in all cases: PASK kinase assay, 32P incorporation into AMARA peptide substrate
[1] = system: AMARA peptide; assay type: biochemical, human; conditions: for Vmax / Km: Pre-phosphorylated enzyme; for Vmax: peptide substrate; for Km: peptide substrate 0.06–1 mM; for Catalytic activity: baculovirus-expressed enzyme variant
Procedure: (§1) Biochemical properties of the Pask enzyme. A recombinant baculovirus was engineered to overexpress human PASK enzyme in cultured insect cells. The enzyme was expressed as a fusion with a His6 tag at its amino terminus such that the recombinant polypeptide could be purified by Ni-affinity chromatography. Routine enzyme preparations were harvested from 0.8 liter of cultured Sf-9 cells. Cells were lysed by dounce homogenization in 50 mM Tris-HCl, pH 8.0, 100 mM NaCl, 0.04% β-mercaptoethanol (“lysis buffer”) and spun at 100,000×G for one hour to remove insoluble debris. Soluble material (˜50 ml) was then applied to a 3 ml bed volume of Ni-affinity resin. Following application and 50× column volume wash, bound material was eluted with storage buffer (50 mM HEPES, pH 7.4, 100 mM NaCl, 1 mM DTT, 1 mM EDTA) supplemented with 250 mM imidazole. Eluted material was sequentially subjected to Mono-Q, anion-exchange chromatography, and eluted with increasing NaCl concentration. Fractions were evaluated by SDS-PAGE to identify PASK enriched fractions, pooled and dialyzed against storage buffer supplemented with 10% glycerol. Typical enzyme preparations yield 0.5 mg of intact PASK enzyme judged to be greater than 95% pure by visual inspection of Coomassie-stained SDS-PAGE gels.
(§2) Kinetic data were used to characterize the activities of PASK enzyme samples derived without modification from baculovirus and following pre-phosphorylation in the presence of ATP. Enzyme activity was monitored using a synthetic substrate bearing the sequence NH2-[…]-CO2H (AMARA peptide, SEQ ID NO:9). The serine residue in this peptide is known to be phosphorylated by both AMPK and Snf1 [2], both of which are exceedingly similar in primary amino acid sequence to the catalytic domain of PASK. The three arginine residues located at the carboxyl terminus of the AMARA peptide allow avid binding to phosphocellulose paper, thereby facilitating quantitation of ^32P incorporation catalyzed by PASK from [γ-^32P]ATP. […] Moreover, lambda phosphatase treatment generated an enzyme which had 7-fold lower activity than the unmodified enzyme, and this treatment was fully reversible by allowing the enzyme to autophosphorylate in the presence of ATP.
(§3) PASK concentrations (0.5–2 μg/ml) were determined to have linear rates with respect to protein concentration and time. Kinetic constants were determined using peptide substrate concentrations between 0.06–1 mM. The data were fit to a non-linear Michaelis-Menten equation using the GraphPad Prism 2.0 program. Vmax values given are μmol/min/mg. NS indicates an SE less than 0.05.

[2] = biological target: T1, AMARA peptide (Homo sapiens, UniProt Q96RG2, F1266C); assay type: biochemical; conditions: truncated variant vs native enzyme
T1 construct: Compounds are checked for effects on both full length and truncated versions of PASK; His6 (N); made in house; host or cells: baculovirus-infected Sf-9 insect cells
Procedure: as §1, §2, §3

[3] = biological target: T2, AMARA peptide (Homo sapiens, UniProt Q96RG2, F1266C/Y899H); assay type: biochemical; conditions: Untreated enzyme
T2 construct: Compounds are checked for effects on both full length and truncated versions of PASK; His6 (N); made in house; host or cells: baculovirus-infected Sf-9 insect cells
T2 sequence (Q96RG2 whole entry Y899H/F1266C, the tested form may be a part): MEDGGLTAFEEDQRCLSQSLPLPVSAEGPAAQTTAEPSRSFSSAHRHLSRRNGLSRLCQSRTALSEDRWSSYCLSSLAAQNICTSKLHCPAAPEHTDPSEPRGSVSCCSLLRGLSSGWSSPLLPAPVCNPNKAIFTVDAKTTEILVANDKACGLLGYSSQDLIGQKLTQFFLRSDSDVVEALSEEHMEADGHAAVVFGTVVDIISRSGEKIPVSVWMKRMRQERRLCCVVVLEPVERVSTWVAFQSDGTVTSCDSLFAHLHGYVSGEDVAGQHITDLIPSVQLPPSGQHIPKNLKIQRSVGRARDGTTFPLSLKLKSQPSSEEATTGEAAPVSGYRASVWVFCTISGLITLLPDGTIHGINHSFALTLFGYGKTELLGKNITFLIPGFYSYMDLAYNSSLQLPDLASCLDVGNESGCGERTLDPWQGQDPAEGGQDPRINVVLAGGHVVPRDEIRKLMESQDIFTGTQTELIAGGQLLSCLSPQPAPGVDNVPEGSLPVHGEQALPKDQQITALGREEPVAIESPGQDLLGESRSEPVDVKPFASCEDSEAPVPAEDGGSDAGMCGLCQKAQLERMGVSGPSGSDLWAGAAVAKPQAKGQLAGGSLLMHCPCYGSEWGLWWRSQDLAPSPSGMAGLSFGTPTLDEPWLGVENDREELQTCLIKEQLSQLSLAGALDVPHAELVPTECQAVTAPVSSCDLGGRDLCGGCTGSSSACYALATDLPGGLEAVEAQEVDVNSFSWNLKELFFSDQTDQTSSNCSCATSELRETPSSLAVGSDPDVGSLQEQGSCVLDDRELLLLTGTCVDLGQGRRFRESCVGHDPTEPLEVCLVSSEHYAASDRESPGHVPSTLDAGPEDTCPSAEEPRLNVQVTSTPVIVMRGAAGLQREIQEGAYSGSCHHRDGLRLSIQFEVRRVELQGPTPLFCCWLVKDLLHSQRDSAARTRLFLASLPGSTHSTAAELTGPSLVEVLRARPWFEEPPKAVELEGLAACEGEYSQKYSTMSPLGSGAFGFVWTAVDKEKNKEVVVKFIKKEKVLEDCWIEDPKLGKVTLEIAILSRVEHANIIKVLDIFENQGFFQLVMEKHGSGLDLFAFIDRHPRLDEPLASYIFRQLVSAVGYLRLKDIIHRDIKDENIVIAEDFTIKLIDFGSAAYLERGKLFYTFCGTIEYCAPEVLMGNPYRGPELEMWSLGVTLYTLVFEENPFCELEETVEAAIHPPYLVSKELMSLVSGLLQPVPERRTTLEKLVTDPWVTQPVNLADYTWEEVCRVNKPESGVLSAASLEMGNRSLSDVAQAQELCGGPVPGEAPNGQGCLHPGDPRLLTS
Procedure: as §1, §2, §3

| Molecule | Vmax [1] [µmol/min/mg] | Km [1] [µM] | catalytic rate constant (Vmax) higher than the native enzyme [2] [fold] | Catalytic activity [1] | Vmax ([3]; peptide substrate) [µmol/min/mg] | Km ([3]; peptide substrate 0.06–1 mM) [µM] |
| --- | --- | --- | --- | --- | --- | --- |
| B1 | 2.8 | 300 | 18 |  |  |  |
| B2 |  |  |  | completely inactive |  |  |
| B3 |  |  |  | Catalytically inactive |  |  |
| B4 | 0.4 | 300 |  |  |  |  |
| B5 | 0.1 | 200 |  |  |  |  |
| B6 | 0.1 | 200 |  |  |  |  |
| B7 | 0.2 | 200 |  |  | 0.1 | 1300 |
| B8 | 0.1 | 600 |  |  |  |  |
